Assay results taken from article PMC6378967.

Assays:
WT human renin (human) [1] = biological target: WT human renin (human) (UniProt P00797)
[2] = biological target: biotinylated renin D226A mutant (human); assay: BLI; FortéBio Octet Red96; biotinylated renin D226A (2.5 μg/ml) loaded on streptavidin biosensors; 2-fold dilutions of AGT in 10 mM Tris, pH 7.4, 0.15 M NaCl, 1% BSA; 1:1 binding model, global fit; KD = koff/kon; three independent assays
WT human renin (human) [3] = biological target: WT human renin (human) (UniProt P00797); remark: listed apart in the source

WT human renin (human), sequence (P00797 67-406): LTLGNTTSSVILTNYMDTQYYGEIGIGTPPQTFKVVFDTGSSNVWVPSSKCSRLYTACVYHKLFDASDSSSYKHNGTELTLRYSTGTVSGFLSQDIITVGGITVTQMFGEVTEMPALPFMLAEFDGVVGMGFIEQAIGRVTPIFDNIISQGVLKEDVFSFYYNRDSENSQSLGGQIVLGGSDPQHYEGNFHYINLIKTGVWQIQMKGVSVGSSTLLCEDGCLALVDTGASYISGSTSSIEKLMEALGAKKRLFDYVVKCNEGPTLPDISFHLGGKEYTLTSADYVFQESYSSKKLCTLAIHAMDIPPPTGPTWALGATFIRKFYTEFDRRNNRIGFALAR

Substance | Km of cleavage of AGT by WT human renin (released Ang I quantified by immunoassay) (WT human renin (human) [1]) [µM] | kcat of cleavage of AGT by WT human renin (released Ang I quantified by immunoassay) (WT human renin (human) [1]) [s⁻¹] | kcat/Km of cleavage of AGT by WT human renin (released Ang I quantified by immunoassay) (WT human renin (human) [1]) [M⁻¹ s⁻¹] | Kd [2] [nM] | koff [2] [s⁻¹] | kon [2] [M⁻¹ s⁻¹] | inhibition of renin cleavage of an AGT fusion protein (intact AGT 1.1 μM) by increasing amounts of spent AGT (product inhibition; blocks renin with intact AGT) (WT human renin (human) [3]) [µM]
human AGT R83H (natural protein) | 1.42 | 0.2 | 140000 | 44.6 | 0.000606 | 14000 | –
fully glycosylated WT human angiotensinogen (AGT) (natural protein) | 0.76 | 0.2 | 250000 | – | – | – | –
human AGT quadruple glycosylation mutant N14Q/N137Q/N271Q/N295Q (natural protein) | 0.67 | 0.44 | 650000 | 1.2 | 8.61e-05 | 74600 | –

More lines, now with the values ahead:

Km of cleavage of AGT by WT human renin (released Ang I quantified by immunoassay) (WT human renin (human) [1]) [µM] | kcat of cleavage of AGT by WT human renin (released Ang I quantified by immunoassay) (WT human renin (human) [1]) [s⁻¹] | kcat/Km of cleavage of AGT by WT human renin (released Ang I quantified by immunoassay) (WT human renin (human) [1]) [M⁻¹ s⁻¹] | Kd [2] [nM] | koff [2] [s⁻¹] | kon [2] [M⁻¹ s⁻¹] | inhibition of renin cleavage of an AGT fusion protein (intact AGT 1.1 μM) by increasing amounts of spent AGT (product inhibition; blocks renin with intact AGT) (WT human renin (human) [3]) [µM] | Substance
0.76 | 0.16 | 220000 | 27.9 | 0.000418 | 15000 | – | human AGT N334T (natural protein)
2.56 | 0.14 | 50000 | 91.5 | 0.000296 | 3210 | – | human AGT N331D (natural protein)
0.56 | 0.35 | 640000 | 5.8 | 0.000209 | 36100 | – | human AGT N14Q variant (natural protein)
– | – | – | – | – | – | 0.65 | spent AGT (human AGT without the N-terminal 10-residue angiotensin I peptide) (domain or fragment)
